Experimental data reported in patent US20140302524A1.

Key:
[1] = molecular target: full-length human LOXL2 protein (human) (UniProt Q9Y4K0); experiment: cell-based or functional assay
[2] = molecular target: full-length human LOXL2 protein (human) (UniProt Q9Y4K0); experiment: ELISA, LOXL2 coated

Chain of UniProt Q9Y4K0 (Q9Y4K0 other isoform, or with tags, fused parts or gaps): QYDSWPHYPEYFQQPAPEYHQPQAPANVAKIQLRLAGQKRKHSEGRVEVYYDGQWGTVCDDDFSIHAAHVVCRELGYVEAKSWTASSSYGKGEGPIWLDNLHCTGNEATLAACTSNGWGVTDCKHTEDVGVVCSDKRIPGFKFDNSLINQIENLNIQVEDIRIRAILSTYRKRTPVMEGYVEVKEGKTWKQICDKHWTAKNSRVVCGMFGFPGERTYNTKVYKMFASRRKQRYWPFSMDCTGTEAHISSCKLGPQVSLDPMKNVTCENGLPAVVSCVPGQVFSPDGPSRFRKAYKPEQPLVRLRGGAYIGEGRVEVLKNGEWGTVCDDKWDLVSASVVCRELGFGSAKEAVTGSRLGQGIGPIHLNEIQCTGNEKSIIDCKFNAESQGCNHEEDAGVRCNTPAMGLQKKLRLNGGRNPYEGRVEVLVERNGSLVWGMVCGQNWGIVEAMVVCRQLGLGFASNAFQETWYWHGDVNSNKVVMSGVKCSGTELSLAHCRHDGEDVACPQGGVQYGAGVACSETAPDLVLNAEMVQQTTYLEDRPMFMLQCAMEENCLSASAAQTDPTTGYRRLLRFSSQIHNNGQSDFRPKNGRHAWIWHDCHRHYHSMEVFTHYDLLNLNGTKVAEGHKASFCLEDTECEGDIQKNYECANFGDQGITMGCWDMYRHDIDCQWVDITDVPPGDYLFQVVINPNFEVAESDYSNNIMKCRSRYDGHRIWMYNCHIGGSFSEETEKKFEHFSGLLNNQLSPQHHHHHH

IC50′ (nM), inhibition of LOXL2 enzymatic activity (Amplex Red assay); substrate DAP, collagen [1]: 62 nM
Kd [2]: < 1 nM
B1: AB0023 (antibody, from another filing, V domains shown)
VH: QVQLQQSGAELVRPGTSVKVSCKASGYAFTYYLIEWVKQRPGQGLEWIGVINPGSGGTNYNEKFKGKATLTADKSSSTAYMQLSSLTSDDSAVYFCARNWMNFDYWGQGTTLTVSS
VL: DIVMTQAAPSVSVTPGESVSISCRSSKSLLHSNGNTYLYWFLQRPGQSPQFLIYRMSNLASGVPDRFSGSGSGTAFTLRISRVEAEDVGVYYCMQHLEYPYTFGGGTKLEIK
